T1: Cynomolgus CD73 ECD (cynomolgus, UniProt A0A2K5V5U7 27-549)
T1 construct: extracellular domain; also called cyno CD73
T1 sequence: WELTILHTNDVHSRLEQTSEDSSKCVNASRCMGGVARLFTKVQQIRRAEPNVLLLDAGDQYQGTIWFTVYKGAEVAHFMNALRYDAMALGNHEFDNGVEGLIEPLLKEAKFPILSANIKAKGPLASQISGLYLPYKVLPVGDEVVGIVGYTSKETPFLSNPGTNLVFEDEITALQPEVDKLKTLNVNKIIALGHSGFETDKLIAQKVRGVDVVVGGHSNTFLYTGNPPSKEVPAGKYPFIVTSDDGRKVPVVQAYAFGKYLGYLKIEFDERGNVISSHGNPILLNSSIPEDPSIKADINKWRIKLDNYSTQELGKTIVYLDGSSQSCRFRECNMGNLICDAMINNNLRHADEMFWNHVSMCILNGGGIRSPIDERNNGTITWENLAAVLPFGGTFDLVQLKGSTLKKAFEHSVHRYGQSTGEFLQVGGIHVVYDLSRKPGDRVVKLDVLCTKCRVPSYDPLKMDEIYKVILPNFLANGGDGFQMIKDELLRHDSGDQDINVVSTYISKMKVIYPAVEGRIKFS

T2: Murine CD73 ECD (murine, UniProt Q61503 29-551, limits assumed)
T2 construct: extracellular domain; In-house recombinant ECD; also called murine CD73 extracellular domain; muCD73
T2 sequence (looked up): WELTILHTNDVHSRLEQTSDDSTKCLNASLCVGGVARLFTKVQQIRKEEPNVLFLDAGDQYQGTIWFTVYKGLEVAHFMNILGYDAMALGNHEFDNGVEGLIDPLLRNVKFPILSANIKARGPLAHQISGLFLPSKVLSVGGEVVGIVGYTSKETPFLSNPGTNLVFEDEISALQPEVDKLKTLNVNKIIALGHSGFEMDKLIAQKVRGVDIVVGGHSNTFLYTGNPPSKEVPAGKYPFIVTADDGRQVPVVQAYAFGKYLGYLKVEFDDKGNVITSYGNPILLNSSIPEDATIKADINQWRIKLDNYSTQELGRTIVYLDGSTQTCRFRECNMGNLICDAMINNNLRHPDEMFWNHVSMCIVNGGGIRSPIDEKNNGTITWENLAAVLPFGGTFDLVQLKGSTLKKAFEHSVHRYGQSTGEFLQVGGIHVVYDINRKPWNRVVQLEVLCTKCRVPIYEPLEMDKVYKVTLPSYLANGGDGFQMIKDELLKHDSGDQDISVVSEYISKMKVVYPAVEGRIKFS

T3: Human CD73 ECD (human, UniProt P21589 27-549)
T3 construct: Biotinylated in some assays; also called human CD73 extracellular domain; huCD73
T3 sequence: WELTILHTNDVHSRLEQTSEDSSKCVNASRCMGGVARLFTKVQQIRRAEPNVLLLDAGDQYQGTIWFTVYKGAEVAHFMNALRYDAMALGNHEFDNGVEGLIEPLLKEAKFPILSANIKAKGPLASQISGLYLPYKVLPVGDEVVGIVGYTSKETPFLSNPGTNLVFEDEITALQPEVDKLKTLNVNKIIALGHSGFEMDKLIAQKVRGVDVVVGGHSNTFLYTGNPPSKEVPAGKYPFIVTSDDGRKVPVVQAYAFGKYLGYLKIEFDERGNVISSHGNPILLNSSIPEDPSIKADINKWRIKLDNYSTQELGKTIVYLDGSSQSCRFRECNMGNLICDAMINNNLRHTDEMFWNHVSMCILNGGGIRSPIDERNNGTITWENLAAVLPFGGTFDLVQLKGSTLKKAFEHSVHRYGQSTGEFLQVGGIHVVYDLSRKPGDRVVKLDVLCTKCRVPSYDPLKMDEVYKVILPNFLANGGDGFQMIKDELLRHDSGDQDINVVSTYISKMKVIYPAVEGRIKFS

T4: Human CD73 on cells (MDA-MB-231, Jurkat CD73 knock-in, NCI-H322) (human, UniProt P21589 27-549)
T4 sequence: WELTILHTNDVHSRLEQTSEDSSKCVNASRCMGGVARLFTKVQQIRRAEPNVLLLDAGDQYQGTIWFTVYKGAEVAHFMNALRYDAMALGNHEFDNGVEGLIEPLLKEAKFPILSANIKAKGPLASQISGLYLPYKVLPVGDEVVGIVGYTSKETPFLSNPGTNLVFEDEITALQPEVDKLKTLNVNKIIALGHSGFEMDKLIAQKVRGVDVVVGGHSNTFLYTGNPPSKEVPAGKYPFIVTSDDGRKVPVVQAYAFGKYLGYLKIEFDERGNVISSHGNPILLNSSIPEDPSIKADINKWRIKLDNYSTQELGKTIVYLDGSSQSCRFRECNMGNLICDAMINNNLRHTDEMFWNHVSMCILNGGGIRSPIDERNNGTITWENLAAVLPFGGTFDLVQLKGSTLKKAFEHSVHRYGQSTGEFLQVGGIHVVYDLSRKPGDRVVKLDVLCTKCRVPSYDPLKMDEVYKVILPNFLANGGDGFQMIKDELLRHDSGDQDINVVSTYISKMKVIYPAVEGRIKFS

T5: Murine CD73 on cells (4T1, Jurkat mCD73 knock-in) (murine, UniProt Q61503 29-551)
T5 construct: whole, on cells; also called 4T1 (murine)
T5 sequence (looked up): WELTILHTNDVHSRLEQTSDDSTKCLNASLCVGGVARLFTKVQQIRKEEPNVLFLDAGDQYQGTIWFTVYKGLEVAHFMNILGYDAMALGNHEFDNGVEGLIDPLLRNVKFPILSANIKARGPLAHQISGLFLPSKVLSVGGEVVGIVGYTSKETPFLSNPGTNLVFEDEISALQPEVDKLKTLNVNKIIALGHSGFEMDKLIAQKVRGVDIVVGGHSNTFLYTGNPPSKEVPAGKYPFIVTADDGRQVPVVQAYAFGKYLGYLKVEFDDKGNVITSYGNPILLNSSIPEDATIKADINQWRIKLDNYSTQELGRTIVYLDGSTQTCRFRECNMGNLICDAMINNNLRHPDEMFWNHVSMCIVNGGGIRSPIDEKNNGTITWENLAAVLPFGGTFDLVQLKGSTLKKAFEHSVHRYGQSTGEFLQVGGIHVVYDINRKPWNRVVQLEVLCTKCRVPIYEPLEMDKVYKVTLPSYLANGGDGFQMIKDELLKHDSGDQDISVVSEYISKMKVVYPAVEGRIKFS

T6: Cynomolgus CD73 on MK-1 cells (cynomolgus, UniProt A0A2K5V5U7 27-549)
T6 construct: whole, on cells; also called MK-1 (cyno)
T6 sequence: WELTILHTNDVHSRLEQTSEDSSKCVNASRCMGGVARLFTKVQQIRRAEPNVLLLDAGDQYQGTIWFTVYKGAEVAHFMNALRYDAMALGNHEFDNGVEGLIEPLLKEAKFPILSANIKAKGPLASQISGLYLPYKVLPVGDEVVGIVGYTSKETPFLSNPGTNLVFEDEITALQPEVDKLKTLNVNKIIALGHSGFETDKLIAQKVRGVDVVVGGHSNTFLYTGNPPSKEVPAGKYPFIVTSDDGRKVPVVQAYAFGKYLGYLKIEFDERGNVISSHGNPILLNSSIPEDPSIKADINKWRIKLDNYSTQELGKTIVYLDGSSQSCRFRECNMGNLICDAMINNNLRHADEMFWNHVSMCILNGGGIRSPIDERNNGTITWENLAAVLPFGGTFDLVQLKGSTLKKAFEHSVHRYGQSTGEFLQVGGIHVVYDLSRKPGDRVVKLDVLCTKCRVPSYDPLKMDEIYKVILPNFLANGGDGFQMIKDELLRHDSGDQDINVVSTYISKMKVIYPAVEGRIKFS


Columns and labels:
[1] = target: T1, Cynomolgus CD73 ECD; assay: binding assay, format not stated
[2] = target: T2, Murine CD73 ECD; assay: binding assay, format not stated
[3] = target: T3, Human CD73 ECD; assay: binding assay, format not stated
[4] = target: T1, Cynomolgus CD73 ECD; assay: SPR (Proteon)
[5] = target: T2, Murine CD73 ECD; assay: SPR (Proteon)
[6] = target: T3, Human CD73 ECD; assay: SPR (Proteon)
[7] = target: T4, Human CD73 on cells (MDA-MB-231, Jurkat …); assay: cell-based or functional assay
[8] = target: T3, Human CD73 ECD; assay: cell-based or functional assay
[9] = target: T5, Murine CD73 on cells (4T1, Jurkat mCD73 …); assay: flow cytometry on cells
[10] = target: T6, Cynomolgus CD73 on MK-1 cells; assay: flow cytometry on cells
[11] = target: T4, Human CD73 on cells (MDA-MB-231, Jurkat …); assay: flow cytometry on cells
[12] = target: T5, Murine CD73 on cells (4T1, Jurkat mCD73 …); assay: cell-based or functional assay
[13] = target: T4, Human CD73 on cells (MDA-MB-231, Jurkat …); assay: cell-based or functional assay; remark: listed apart in the source
[14] = target: T3, Human CD73 ECD; assay: binding to recombinant human CD73 by flow cytometry, IgG1-TM
[15] = target: T2, Murine CD73 ECD; assay: binding to recombinant murine CD73 by flow cytometry, IgG1-TM
[16] = target: T4, Human CD73 on cells (MDA-MB-231, Jurkat …); assay: flow cytometry on MDA-MB-231 cells, IgG from 293F cells
[17] = target: CD73 (species and format not stated); assay: binding assay not stated
[18] = target: T2, Murine CD73 ECD; assay: capture ELISA and direct ELISA, normalized Fab supernatants
[19] = target: T3, Human CD73 ECD; assay: as above

Binder | 1/EC50 [1] | 1/EC50 [2] | 1/EC50 [3] | Kd [4] | Kd [5] | Kd [6] | Enzyme Inhibition, MDA-MB-231, 1/EC50 (nM) [7] | Internalization, MDA-MB-231, 1/EC50 (nM) [7] | Enzyme Inhibition, rCD73, 1/EC50 (nM) [8] | Kd [9] | Kd [10] | Kd [11] | FabZAP internalization, EC50, 4T1 [12] | FabZAP internalization, maximum toxicity, 4T1 [12] | FabZAP internalization, EC50, MDA-MB-231 [13] | FabZAP internalization, maximum toxicity, MDA-MB-231 [13] | other results
CD730002 (antibody, V domains shown, IgG1-TM format; also called CD730002 antibody; clone 2) VH: not shown VL: QSVLTQPPSVSVSPGQTATITCSGDKVGDKYASWYQQKPGQSPVLVIYEDTKRPSRIPERFSGSNSGNTATLTISGTQALDEADYFCQAWDTSFWVFGGGTKLTVL | 0.2 nM⁻¹ | 0.024 nM⁻¹ | 0.1 nM⁻¹ | 0.015 nM | 0.04 nM | 0.007 nM | 12 nM⁻¹ | 0.021 nM⁻¹ | 0.021 nM⁻¹ | 0.05 nM | 0.052 nM | 0.052 nM | 0.206 nM | 83% | 0.0071 nM | 95% | –
CD730002 SGMY (antibody, IgG1, V domains shown, IgG1-TM; non-germlined VH, fully germlined VL (S20, G57, M81, Y87); also called Clone 2 SGMY) VH: not shown VL: QSVLTQPPSVSVSPGQTASITCSGDKVGDKYASWYQQKPGQSPVLVIYEDTKRPSGIPERFSGSNSGNTATLTISGTQAMDEADYYCQAWDTSFWVFGGGTKLTVL | – | – | – | – | – | – | – | – | – | – | – | – | – | – | – | – | binding result [14]: binds; binding result [15]: binds
CD730002 2C5 (antibody, V domains shown, IgG1-TM format; also called clone 2C5 antibody) VH: EVQLLESGGGLVQPGGSLRLSCAASGFTFSSYAMSWVRQAPGKGLEWVSAISGSGGSTYYADSVKRRFTISRDNSKNTLYLQMNSLRAEDTAVYYCARDKGYYWYMDVWGQGTMVTVSS VL: QSVLTQPPSVSVSPGQTASITCSGDKVGDKYASWYQQKPGQSPVLVIYEDTKRLSGIPERFSGSNSGNTATLTISGTQAMDEADYYCQAWDTSFWVFGGGTKLTVL | – | – | – | 0.009 nM | 0.022 nM | 0.009 nM | – | – | – | 0.055 nM | 0.063 nM | 0.084 nM | 0.173 nM | 82% | 0.0091 nM | 98% | fold lower EC50 than parental CD730002SGMY [16]: 3 fold
73combo1 (C1+GRVE+HPT) (antibody, V domains shown, IgG1-TM format; also called 73combol; clone 10 combo1) VH: EVQLLESGGGLVQPGGSLRLSCAASGFTFSSYAYSWVRQAPGKGLEWVSAISGSGGSTYYADSVKGRFTISRDNSKNTLYLQMNSLRAEDTAVYYCARLGYGRVDEWGRGTLVTVSS VL: not shown | – | – | – | 0.008 nM | 0.002 nM | 0.007 nM | – | – | – | 0.15 nM | 0.09 nM | 0.157 nM | 0.0331 nM | 97% | 0.0038 nM | 97% | –
CD730010 (antibody, V domains shown, IgG1-TM format (L234F, L235E, P331S); also called CD730010 antibody; clone 10) VH: not shown VL: LPVLTQPPSVSGTPGQRVTISCSGSLSNIGRNPVNWYKQVPGTAPKLLIYLNNQRPSGVPDRFSGSKSGTSASLAISGLQSEDEADYYCATWDDSLNGWLFGGGTKLTVL | 0.0033 nM⁻¹ | 0.0024 nM⁻¹ | 0.0034 nM⁻¹ | 1.92 nM | 2.47 nM | 3.58 nM | 0.33 nM⁻¹ | 0.0062 nM⁻¹ | 0.0062 nM⁻¹ | 6.1 nM | – | 8 nM | – | – | – | – | EC50 [17]: 69 nM
Clone D3 Fab (Fab, V domains shown, Bacterial Fab from the combinatorial library) VH: EVQLLESGGGLVQPGGSLRLSCAASGFTFSSYAYSWVRQAPGKGLEWVSAISGSGGRTYYADSVKGRFTISRDNSKNTLYLQMNSLRAEDTAVYYCARLGYSTIDLWGRGTLVTVSS VL: QSVLTQPPSASGTPGQRVTISCSGSLSNIGRNPVNWYQQLPGTAPKLLIYLDNLRLSGVPDRFSGSKSGTSASLAISGLQSEDEADYYCATWDDSLIGWLFGGGTKLTVL | – | – | – | – | – | – | – | – | – | – | – | – | – | – | – | – | binding result [18]: binds; binding result [19]: binds
